Values of other authors in article PMC9775385.

Target: Nter-BsRNaseY N-terminal domain (Bacillus subtilis) (UniProt O31774)

## Nter-BsRNaseY N-terminal domain (from UniProt O31774)
  Kd: 1300 nM
